According to paper PMC2723993, “Crystal Structure of Escherichia coli Polynucleotide Phosphorylase Core Bound to RNase E, RNA and Manganese: Implications for Catalytic Mechanism and RNA Degradosome Assembly” (Journal of Molecular Biology, 2009):

B1: Escherichia coli polynucleotide phosphorylase core (PNPase ΔKHΔS1, lacking the C-terminal S1 and KH domains) (domain or fragment, E. coli)
chain: MLNPIVRKFQYGQHTVTLETGMMARQATAAVMVSMDDTAVFVTVVGQKKAKPGQDFFPLTVNYQERTYAAGRIPGSFFRREGRPSEGETLIARLIDRPIRPLFPEGFVNEVQVIATVVSVNPQVNPDIVAMIGASAALSLSGIPFNGPIGAARVGYINDQYVLNPTQDELKESKLDLVVAGTEAAVLMVESEAQLLSEDQMLGAVVFGHEQQQVVIQNINELVKEAGKPRWDWQPEPVNEALNARVAALAEARLSDAYRITDKQERYAQVDVIKSETIATLLAEDETLDENELGEILHAIEKNVVRSRVLAGEPRIDGREKDMIRGLDVRTGVLPRTHGSALFTRGETQALVTATLGTARDAQVLDELMGERTDTFLFHYNFPPYSVGETGMVGSPKRREIGHGRLAKRGVLAVMPDMDKFPYTVRVVSEITESNGSSSMASVCGASLALMDAGVPIKAAVAGIAMGLVKEGDNYVVLSDILGDEDHLGDMDFKVAGSRDGISALQMDIKIEGITKEIMQVALNQAKGARLHILGVMEQAINAPRGDIS
notes: Expression vector from George Mackie; No tag is mentioned; also called PNPase core; PNPase ΔKΔH1; source: E. coli BL21 (DE3), auto-induction, purified (ammonium sulphate, Q-Sepharose, mono-Q)
B2: RNase E recognition micro-domain (residues 1021-1061) (peptide, UniProt P21513 1021-1061, looked up)
peptide: EAPRHSDWQRPTFAFEGKGAAGGHTATHHASAAPARPQPVE
notes: also called RNase E micro-domain; source: synthetic peptide (Clonestar Biotech Ltd), desalted on PD10

Experiments:
[1] = biological target: the molecule itself; assay: crystal structure; co-crystals of 165 uM PNPase core mixed with 246 uM RNase E micro-domain (1021-1061), with or without O2'-methyl RNA, Mn2+ or tungstate; four crystal forms; hanging drop, 20 °C
[2] = biological target: B2; assay: ITC; MicroCal VP-ITC, 25 °C; 200 uM PNPase core injected into 10 uM RNase E micro-domain in the cell; 10 mM Tris pH 7.5, 150 mM NaCl, 1 mM MgCl2; single binding-site model; conditions: both partners purified
[3] = biological target: B1; assay: as above; conditions: both partners purified

dH [2] [kcal/mol]	stoichiometry N [2]	Ka [3] [M⁻¹]	Kd [3] [nM]	Binder	stoichiometry N [1]
-21.5 ± 0.52	1.02 ± 0.02			B1	3
		956000	~900	B2	
